In paper PMC7952408:
“Also recorded” adds a separate entry of the source.

Conditions: N-glycosylation at N297

Maxatezo / Atezolizumab (anti-PD-L1 human IgG1) heavy chain: N297A (Atezolizumab) compared with A297N back-mutation + GGGS insertion (Maxatezo)
expression_or_secretion: decreases, 1.3 g/L (aglycosylated) vs up to 4 g/L (Maxatezo) | other: increases | stability_or_folding: decreases, Tm1 71.01 °C (Maxatezo) vs 63.55 °C (Atezolizumab), 7.46 °C difference; also recorded: decreases, Tagg 71.2 °C (Maxatezo) vs 60.7 °C (Atezolizumab), 10.5 °C difference
